Results from patent publication US20210253718A1, “FRIZZLED5 PROTEIN-BINDING AGENTS” (Modmab Therapeutics Corporation, priority 2016, published 2021).
Numbering of substitutions follows the chain as printed. Blank lines part the entries; values can stand above or below the molecule they belong to.

What was measured:
Assay in all cases: Flow cytometry of anti-FZD5 Fab binding to CHO cells overexpressing Frizzled CRD
[1] = target: T1, FZD2 CRD (Homo sapiens, UniProt Q14332)
T1 construct: D35-P161; GPI anchor signal (C); expressed in transfected cells; host or cells: CHO cells, lentiviral pLenti-puro
Experimental: (§1) Plasmids: pLCKO lentiviral vector used for knockout (TKO) library construction and expression of individual gRNAs was constructed as described previously (Hart et al., 2015). Briefly, single guide RNA (sgRNA) scaffold was amplified from px330 (Addgene 42230) and cloned into pLKO.TRC005 lentiviral vector (Broad Institute, Cambridge, Mass.) using AgeI/EcoRI restriction sites. BfuAI sites were added at the 5′ end of the sgRNA scaffold for cloning the TKO library or individual gRNA target sequences. Lenti Cas9-2A-BsdR vector used to generate Cas9 stable expression cell lines was constructed as described previously (Hart et al., 2015). Briefly, lentiCRISPR pXPR_001 (Addgene 49535) was modified through removal of the sgRNA scaffold region through NdeI/EcoRI digest and blunt ends generation using Large Klenow Fragment (NEB). 2A-puro was replaced with 2A-BsdR by PCR using the NheI/MluI sites. Each of the 10 human Frizzled cysteine rich domains (CRDs) were cloned into the lentiviral expression plasmid pLenti-puro in the following cassette: FZD_CRD-MYC-GPI.
(§2) Flow cytometry: Primary staining of cells was performed by treatment with 200 nM Frizzled profiler Fab. Alexa Fluor 488 AffiniPure F(ab′)2 was used as the secondary antibody (Jackson ImmunoResearch #109-546-097). c-Myc (9E10) IgG1 (primary antibody, Santa Cruz, lot #D0306) and Alexa Fluor 488 IgG (secondary antibody, Life technologies, lot #1458649) were used as controls. Dead cells were excluded by staining with Fixable Viability Dye eFluor 660 (eBioscience, catalogue number 65-0864). All reagents were used as per manufacturer's instructions. Flow cytometry was performed on a BD FACSCanto II flow cytometer (BD Biosciences), and data were analyzed with FlowJo software (FlowJo, LLC).
(§3) To confirm that the FZD5-WNT7B circuit is not driven simply by expression and rule out the possibility of a disconnect between RNA and protein levels for the Wnt receptors in HPAF-II cells, a panel of recombinant Fabs were generated, alternatively referred to herein as ‘Frizzled profiler’, that can detect and discriminate all but one of the ten Frizzled receptors. […] To characterize the binding specificity of these Fabs on cells, a panel of 10 CHO cell lines was generated, each expressing the CRD domain of a different myc-tagged Frizzled family member anchored at the plasma membrane through a GPI anchor (CHO-myc-FZDGPI). Despite the high sequence identity between Frizzled family members (FIG. 7A, FIG. 7B), selective Fabs were identified for FZD4, FZD5, FZD6 and FZD10 as assessed by immunofluorescence and flow cytometry (FIG. 7D and FIG. 8). […] The FZD8 CRD is most homologous to that of FZD5 (FIG. 7B). These Fabs can be used to discriminate expression of FZD1, FZD2, FZD4, FZD5, FZD6, FZD7, FZD8, FZD9 and FZD10 (FIG. 7D and FIG. 8). The ‘Frizzled profiler’ therefore consists of 10 different Fabs that can be used to discriminate expression of 9 different Frizzled family members. The Frizzled profiler was then used to confirm that HPAF-II cells express FZD1, FZD5, FZD6 and possibly FZD8 (FIG. 7E).
(§4) The binding of anti-FZD5 Fabs to cell surface-expressed Frizzled protein was further determined for each member of the Frizzled family via flow cytometry and immunofluorescence analysis of a panel of 10 CHO cell lines, each ectopically over-expressing the extracellular cysteine-rich domain (CRD) of a different Frizzled protein family member.

[2] = target: T2, FZD7 CRD (Homo sapiens, UniProt O75084)
T2 construct: D45-S169; GPI anchor signal (C); expressed in transfected cells; host or cells: CHO cells, lentiviral pLenti-puro
Experimental: as §1, §2, §3, §4

[3] = target: T3, FZD1 CRD (Homo sapiens, UniProt Q9UP38)
T3 construct: D112-P238; GPI anchor signal (C); expressed in transfected cells; host or cells: CHO cells, lentiviral pLenti-puro
Experimental: as §1, §2, §3, §4

[4] = target: T4, FZD4 CRD (Homo sapiens, UniProt Q9ULV1)
T4 construct: E42-V167; GPI anchor signal (C); expressed in transfected cells; host or cells: CHO cells, lentiviral pLenti-puro
T4 sequence (Q9ULV1 42-167): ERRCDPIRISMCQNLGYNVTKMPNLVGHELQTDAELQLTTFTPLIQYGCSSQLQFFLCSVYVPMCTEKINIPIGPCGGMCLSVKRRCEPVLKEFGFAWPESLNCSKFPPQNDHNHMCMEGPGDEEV
Experimental: as §1, §2, §3, §4

[5] = target: T5, FZD8 CRD (Homo sapiens, UniProt Q9H461)
T5 construct: K31-D155; GPI anchor signal (C); expressed in transfected cells; host or cells: CHO cells, lentiviral pLenti-puro
T5 sequence (Q9H461 31-155): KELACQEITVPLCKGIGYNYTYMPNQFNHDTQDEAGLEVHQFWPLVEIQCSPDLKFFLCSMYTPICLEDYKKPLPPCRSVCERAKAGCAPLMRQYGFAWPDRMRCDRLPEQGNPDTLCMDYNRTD
Experimental: as §1, §2, §3, §4

B1: Fab-2900: anti-FZD5 Fab with antibody variable region Fv-2900; CDR SEQ ID NOs: 35, 36, 39, 78, 115, 153 (antibody, V domains shown)
VH: EVQLVESGGGLVQPGGSLRLSCAASGFNLSSYYIHWVRQAPGKGLEWVASISSSSSSTSYADSVKGRFTISADTSKNTAYLQMNSLRAEDTAVYYCARGALDYWGQGTLVTVSS
VL: DIQMTQSPSSLSASVGDRVTITCRASQSVSSAVAWYQQKPGKAPKLLIYSASSLYSGVPSRFSGSRSGTDFTLTISSLQPEDFATYYCQQWYSGSSLFTFGQGTKVEIK
Median fluorescence, Frizzled CRD overexpressed on CHO cells: FZD2 [1]: 6.15 | Median fluorescence, Frizzled CRD overexpressed on CHO cells: FZD7 [2]: 8.98 | Median fluorescence, Frizzled CRD overexpressed on CHO cells: FZD1 [3]: 31.06

B4: Fab-2913: anti-FZD5 Fab with antibody variable region Fv-2913; CDR SEQ ID NOs: 35, 36, 52, 91, 128, 165 (antibody, V domains shown)
VH: EVQLVESGGGLVQPGGSLRLSCAASGFNISYSSIHWVRQAPGKGLEWVASIYPYSSSTSYADSVKGRFTISADTSKNTAYLQMNSLRAEDTAVYYCARYGYYGLDYWGQGTLVTVSS
VL: B1 VL with Y92G, S93V, G94S, S95H, S96Y
Median fluorescence, Frizzled CRD overexpressed on CHO cells: FZD8 [5]: 8.98

B6: Fab-2909: anti-FZD5 Fab with antibody variable region Fv-2909; CDR SEQ ID NOs: 35, 36, 48, 87, 124, 161 (antibody, V domains shown)
VH: EVQLVESGGGLVQPGGSLRLSCAASGFNISSSYMHWVRQAPGKGLEWVASISSSSGYTSYADSVKGRFTISADTSKNTAYLQMNSLRAEDTAVYYCARTVRGSKKPYFSGWAMDYWGQGTLVTVSS
VL: B1 VL with W91S, Y92W, G94Y, S95H, S96Y, F98I
Median fluorescence, Frizzled CRD overexpressed on CHO cells: FZD8 [5]: 7.43

B10: Fab-2905: anti-FZD5 Fab with antibody variable region Fv-2905; CDR SEQ ID NOs: 35, 36, 44, 83, 120, 157 (antibody, V domains shown)
VH: EVQLVESGGGLVQPGGSLRLSCAASGFNLSYYYMHWVRQAPGKGLEWVASIYSSYSYTSYADSVKGRFTISADTSKNTAYLQMNSLRAEDTAVYYCARSGYALDYWGQGTLVTVSS
VL: DIQMTQSPSSLSASVGDRVTITCRASQSVSSAVAWYQQKPGKAPKLLIYSASSLYSGVPSRFSGSRSGTDFTLTISSLQPEDFATYYCQQSSWYYGYPFTFGQGTKVEIK
Median fluorescence, Frizzled CRD overexpressed on CHO cells: FZD2 [1]: 5.09 | Median fluorescence, Frizzled CRD overexpressed on CHO cells: FZD8 [5]: 8.17 | Median fluorescence, Frizzled CRD overexpressed on CHO cells: FZD7 [2]: 3.43 | Median fluorescence, Frizzled CRD overexpressed on CHO cells: FZD1 [3]: 3.75

Second part, the molecule after the results:

Median fluorescence, Frizzled CRD overexpressed on CHO cells: FZD4 [4]: 7.3
B2: Fab-2935: anti-FZD5 Fab with antibody variable region Fv-2935; CDR SEQ ID NOs: 35, 36, 74, 111, 150, 178 (antibody, V domains shown)
VH: B1 VH with L29I, S30Y, S31Y, S52Y, S53P, S56G, G99A, L101F
VL: B1 VL with S93G, S95Y, S96A, F98I

Median fluorescence, Frizzled CRD overexpressed on CHO cells: FZD2 [1]: 10.65 | Median fluorescence, Frizzled CRD overexpressed on CHO cells: FZD8 [5]: 7.70 | Median fluorescence, Frizzled CRD overexpressed on CHO cells: FZD7 [2]: 24.14 | Median fluorescence, Frizzled CRD overexpressed on CHO cells: FZD1 [3]: 19.46
B3: Fab-2925: anti-FZD5 Fab with antibody variable region Fv-2925; CDR SEQ ID NOs: 35, 36, 64, 102, 140, 172 (antibody, V domains shown)
VH: B4 VH with I29L, I34M, Y54S, S55Y, S56G, S59Y, Y102F
VL: B1 VL with W91A, Y92W, S93V, G94Y, S95A

Median fluorescence, Frizzled CRD overexpressed on CHO cells: FZD4 [4]: 10.55
B5: Fab-2923: anti-FZD5 Fab with antibody variable region Fv-2923; CDR SEQ ID NOs: 35, 36, 62, 100, 138, 162 (antibody, V domains shown)
VH: B1 VH with S30Y, S31Y, I34M, S52Y, S56G, L101M
VL: B1 VL with S93G, G94Y, S96A, F98I

Median fluorescence, Frizzled CRD overexpressed on CHO cells: FZD2 [1]: 11.44 | Median fluorescence, Frizzled CRD overexpressed on CHO cells: FZD4 [4]: 9.31
B7: Fab-2930: anti-FZD5 Fab with antibody variable region Fv-2930; CDR SEQ ID NOs: 35, 36, 69, 107, 145, 153 (antibody, V domains shown)
VH: B1 VH with S31Y, S52Y, S53P, S54Y, S56G
VL: DIQMTQSPSSLSASVGDRVTITCRASQSVSSAVAWYQQKPGKAPKLLIYSASSLYSGVPSRFSGSRSGTDFTLTISSLQPEDFATYYCQQWYGPYLITFGQGTKVEIK

Median fluorescence, Frizzled CRD overexpressed on CHO cells: FZD4 [4]: 12.75
B8: Fab-2922: anti-FZD5 Fab with antibody variable region Fv-2922; CDR SEQ ID NOs: 35, 36, 61, 99, 137, 171 (antibody, V domains shown)
VH: B6 VH with S30Y, S53P, S54Y
VL: B1 VL with W91S, Y92F, S93V, G94Y, S95P, S96Y, F98I

Median fluorescence, Frizzled CRD overexpressed on CHO cells: FZD2 [1]: 14.59 | Median fluorescence, Frizzled CRD overexpressed on CHO cells: FZD8 [5]: 7.57 | Median fluorescence, Frizzled CRD overexpressed on CHO cells: FZD1 [3]: 18.43
B9: Fab-2928: anti-FZD5 Fab with antibody variable region Fv-2928; CDR SEQ ID NOs: 35, 36, 67, 105, 143, 175 (antibody, V domains shown)
VH: EVQLVESGGGLVQPGGSLRLSCAASGFNISYSSIHWVRQAPGKGLEWVASIYPSYSSTYYADSVKGRFTISADTSKNTAYLQMNSLRAEDTAVYYCARYYAMDYWGQGTLVTVSS
VL: DIQMTQSPSSLSASVGDRVTITCRASQSVSSAVAWYQQKPGKAPKLLIYSASSLYSGVPSRFSGSRSGTDFTLTISSLQPEDFATYYCQQAFYYPITFGQGTKVEIK
